For the experiment, the target named is T1, human 5T4 (oncofetal glycoprotein 5T4, trophoblast cell surface antigen) (human, UniProt Q13641 32-420).
T1 construct: whole, on cells; also called h5T4; 5T4 antigen
T1 sequence (looked up): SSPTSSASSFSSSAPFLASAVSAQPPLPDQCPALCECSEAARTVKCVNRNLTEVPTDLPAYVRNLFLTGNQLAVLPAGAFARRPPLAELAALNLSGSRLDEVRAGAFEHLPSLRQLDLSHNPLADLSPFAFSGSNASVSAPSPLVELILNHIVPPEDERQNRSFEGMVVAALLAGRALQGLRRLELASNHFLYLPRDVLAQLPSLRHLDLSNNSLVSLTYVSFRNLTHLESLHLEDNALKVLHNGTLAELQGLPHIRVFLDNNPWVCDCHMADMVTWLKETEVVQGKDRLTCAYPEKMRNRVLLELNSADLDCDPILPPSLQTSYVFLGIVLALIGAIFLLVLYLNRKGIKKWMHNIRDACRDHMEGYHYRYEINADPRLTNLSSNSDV
Put plainly: FACS: A9-h5T4 cells with B7.1/ScFv supernatant, then CTLA4-Ig, detected with FITC anti-mouse Ig. For orientation: Flow cytometry measures light scatter and fluorescence of single cells or particles in a stream.

This note sets out measurements from patent publication US20040131591A1 (OXFORD BIOMEDICA UK, published 2004).

Protocol: After washing cells were incubated with CTLA4-Ig (Ancell) for 1 hour. After washing, bound CTLA4-Ig was detected using an FITC conjugated anti-mouse Ig (Dako).

B1: B7-1/ScFv fusion protein (leader sequence and extracellular domain of murine B7.1 fused via a flexible linker to the VH and VL of the murine Mab 5T4 specific … (other)
chain: VDEQLSKSVKDKVLLPCRYNSPHEDESEDRIYWQKHDKVVLSVIAGKLKVWPEYKNRTLYDNTTYSLIILGLVLSDRGTYSCVVQKKERGTYEVKHLALVKLSIKADFSTPNITESGNPSADTKRITCFASGGFPKPRFSWLENGRELPGINTTISQDPESELYTISSQLDFNTTRNHTIKCLIKYGDAHVSEDFTWEKPPEDPPDSKPGGGGSGGGGSGGGGTSEVQLQQSGPDLVKPGASVKISCKASGYSFTGYYMHWVKQSHGKSLEWIGRINPNNGVTLYNQKFKDKAILTVDKSSTTAYMELRSLTSEDSAVYYCARSTMITNYVMDYWGQVTSVTVSSGGGGSGGGGTGGGGSSIVMTQTPTFLLVSAGDRVTITCKASQSVSNDVAWYQQKPGQSPTLLISYTSSRYAGVPDRFIGSGYGTDFTFTISTLQAEDLAVYFCQQDYNSPPTFGGGTKLEIKR
notes: Tested as about 30-fold concentrated supernatant of transiently transfected 293T cells; also called B7/ScFv; OBM 233
As for B1, the binding result was “binds”.
